Data reported in US20220193204A1 (BAYLOR COLLEGE OF MEDICINE, published 2022).

Experiments:
[1] = molecular target: recombinant SARS-CoV-2 spike protein (S) (SARS-CoV-2, UniProt P0DTC2 16-1213)
[2] = molecular target: recombinant human vimentin (human, UniProt P08670 2-466, limits assumed); assay: ELISA: increasing concentrations of A2 variant on recombinant human vimentin, bound A2 detected with anti-A2 antibody and a secondary HRP conjugate
Chain of recombinant human vimentin (P08670 2-466 limits assumed): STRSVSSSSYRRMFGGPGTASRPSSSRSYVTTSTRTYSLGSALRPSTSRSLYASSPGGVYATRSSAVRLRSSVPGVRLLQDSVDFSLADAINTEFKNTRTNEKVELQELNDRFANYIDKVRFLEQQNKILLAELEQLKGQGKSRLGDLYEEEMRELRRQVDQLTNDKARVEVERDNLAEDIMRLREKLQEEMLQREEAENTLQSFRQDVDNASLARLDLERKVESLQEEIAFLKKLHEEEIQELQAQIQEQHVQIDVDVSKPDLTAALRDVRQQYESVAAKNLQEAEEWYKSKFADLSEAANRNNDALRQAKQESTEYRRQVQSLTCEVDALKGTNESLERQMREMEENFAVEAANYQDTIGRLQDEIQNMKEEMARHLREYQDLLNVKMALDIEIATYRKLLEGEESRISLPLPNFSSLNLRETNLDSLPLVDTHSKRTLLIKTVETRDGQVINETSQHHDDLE

Binder | binding result [1] | EC50 (read off the curve) [2] [nM]
recombinant A2 domain of human von Willebrand factor (WT A2 protein) (other, conjugated to Alexa Fluor 488 in the confocal microscopy experiments only, not shown: histidine tag (vector pQE-9/VWF-A2)) GLLGVSTLGPKRNSMVLDVAFVLEGSDKIGEADFNRSKEFMEEVIQRMDVGQDSIHVTVLQYSYMVTVEYPFSEAQSKGDILQRVREIRYQGGNRTNTGLALRYLSDHSFLVSQGDREQAPNLVYMVTGNPASDEIKRLPGDIQVVPIGVGPNANVQELERIGWPNAPILIQDFETLPREAPDLVLQR | no binding | ~40
recombinant A2 (E1567A) mutant of the A2 domain of human von Willebrand factor (other, also called A2 mutant; A2 mutant protein; not shown: Histidine tag from the pQE-9 vector) GLLGVSTLGPKRNSMVLDVAFVLEGSDKIGEADFNRSKEFMEEVIQRMDVGQDSIHVTVLQYSYMVTVEYPFSEAQSKGDILQRVRAIRYQGGNRTNTGLALRYLSDHSFLVSQGDREQAPNLVYMVTGNPASDEIKRLPGDIQVVPIGVGPNANVQELERIGWPNAPILIQDFETLPREAPDLVLQR |  | ~70
